Here are results for four substances from publication PMC9977175.

pKd: −log10 of the molar value.

The target in assay [1] is SUMO-tagged WIPI2b^Δ (residues 13 to 362 without 265 to 297) (human). In words: SEC-MALS. In general terms: Size exclusion chromatography separates by hydrodynamic size, large species first.
Assay [2] has the same target. In words: ITC. (Isothermal titration calorimetry measures the heat released or taken up as one component is titrated into another.)

Sequence of Trx-tagged ATG16L1(78 to 247) (Q676U5 78-247): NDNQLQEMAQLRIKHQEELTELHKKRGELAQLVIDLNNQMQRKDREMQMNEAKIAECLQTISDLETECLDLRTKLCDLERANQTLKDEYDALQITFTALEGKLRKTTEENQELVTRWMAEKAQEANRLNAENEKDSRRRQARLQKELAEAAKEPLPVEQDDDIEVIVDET
Sequence of Trx-tagged ATG16L1(78 to 206) (Q676U5 78-206): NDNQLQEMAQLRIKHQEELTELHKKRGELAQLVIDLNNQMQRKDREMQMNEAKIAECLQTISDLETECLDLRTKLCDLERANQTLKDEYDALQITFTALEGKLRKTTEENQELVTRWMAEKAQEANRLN
Sequence of ATG16L1(124 to 247) (Q676U5 124-247): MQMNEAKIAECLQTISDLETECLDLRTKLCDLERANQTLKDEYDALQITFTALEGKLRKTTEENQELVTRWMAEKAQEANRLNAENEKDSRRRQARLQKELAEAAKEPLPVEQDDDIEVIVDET
Sequence of Trx-tagged ATG16L1(207 to 247) (Q676U5 207-247): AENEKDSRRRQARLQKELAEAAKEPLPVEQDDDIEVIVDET

“ATG16L1(124 to 247) (from UniProt Q676U5 124-247) (domain or fragment)”: the stoichiometry N (ATG16L1 chains per WIPI2b^Δ (2:2)) in assay [1] stood at 1. For “Trx-tagged ATG16L1(78 to 206) (from UniProt Q676U5 78-206) (domain or fragment)”, the pKd (usually the Kd on a negative log10 scale, so that one unit is a factor of ten) in assay [2] was 5.16. Regarding “Trx-tagged ATG16L1(78 to 247) (from UniProt Q676U5 78-247) (domain or fragment)”, in assay [2], the KD of the WBS1 site (two-site fit) worked out at 2.88 µM and the KD of the WBS2 site (two-site fit) came to 0.41 µM. As for “Trx-tagged ATG16L1(207 to 247) (from UniProt Q676U5 207-247) (domain or fragment)”, the pKd in assay [2] is 5.41.
